Consider 1 molecule from patent US20100016313A1, “INTESTINAL ALKALINE PHOSPHATASE MODULATORS AND USES THEREOF” (Burnham Institute for Medical Research, priority 2008, published 2010).

The data set can be described thus: Kinetic parameters of recombinant mouse dIAP, gIAP and EAP using p-NPP as substrate. Type of data set: biochemical. Particulars: p-NPP as substrate, pH 9.8; means ± SD. The text has this:
The epithelium of the mouse small intestine expresses two intestine specific AP genes, Akp3 and Akp6, and low levels of Akp5, which is not intestine specific (Narisawa, et al, 2007). AP proteins encoded by Akp3, Akp5 and Akp6 were designated duodenal IAP or dIAP, embryonic AP or EAP and global IAP or gIAP, respectively.

B1: EAP: recombinant mouse embryonic alkaline phosphatase encoded by Akp5 (protein, UniProt P24823 19-502, looked up)
Alkaline phosphatase, germ …: VIPVEEENPAFWNRKAAEALDAAKKLKPIQTSAKNLVILMGDGMGVSTVTATRILKGQQQGHLGPETQLAMDRFPHMALSKTYNTDKQIPDSAGTGTAFLCGVKTNMKVIGLSAAARFNQCNTTWGNEVVSVMHRAKKAGKSVGVVTTTSVQHASPAGTYAHTVNRGWYSDAQMPASALQDGCKDISTQLISNMDIDVILGGGRKFMFPKGTPDQEYPTDTKQAGTRLDGRNLVQEWLAKHQGARYVWNRSELIQASLNRSVTHLMGLFEPNDMKYEIHRDPAQDPSLAEMTEVAVRMLSRNPKGFYLFVEGGRIDHGHHETVAYRALTEAVMFDSAVDKADKLTSEQDTMILVTADHSHVFSFGGYTQRGASIFGLAPFKAEDGKSFTSILYGNGPGYKLHNGARADVTEEESSNPTYQQQAAVPLSSETHSGEDVAIFARGPQAHLVHGVQEQNYIAHVMAFAACLEPYTDCGLASPAGQSS
B1: the Km amounted to 140 ± 30 µM and the kcat turned out to be 8.4 ± 1.1 s⁻¹.

As a reminder, the Km is the concentration of substrate that gives half-maximal velocity. Broadly, the kcat is the number of substrate molecules converted per active site and unit of time at saturation.
